# In the Immune Epitope Database (IEDB):
# How the values were obtained:
# HLA-B*51:01 [1] = test: IEDB peptide-MHC binding, purified MHC/direct/fluorescence; filed as Kd, often an IC50 or EC50 that approximates it; ≥ and ≤ were set here for values at or beyond the usual limits of such assays
# HLA-B*07:02 = test: as above
# HLA-A*03:01 [2] = test: IEDB peptide-MHC binding, purified MHC/competitive/fluorescence; filed as Kd, often an IC50 or EC50 that approximates it; ≥ and ≤ were set here for values at or beyond the usual limits of such assays
# HLA-B*15:42 = test: as above
# HLA-B*83:01 = test: as above
# HLA-B*45:06 = test: as above
# HLA-A*02:03 = test: IEDB peptide-MHC binding, purified MHC/direct/fluorescence; filed as Kd, often an IC50 or EC50 that approximates it; ≥ and ≤ were set here for values at or beyond the usual limits of such assays
# HLA-A*11:01 = test: as above
# HLA-A*02:12 = test: as above
# HLA-A*02:19 = test: as above
# HLA-A*68:02 = test: as above
# HLA-B*39:01 [3] = test: IEDB peptide-MHC binding, purified MHC/competitive/fluorescence; filed as Kd, often an IC50 or EC50 that approximates it; ≥ and ≤ were set here for values at or beyond the usual limits of such assays
# HLA-B*18:01 [4] = test: as above
# HLA-A*26:01 = test: as above
# HLA-A*02:01 [5] = test: as above
# HLA-B*27:03 = test: as above
# HLA-A*69:01 [6] = test: as above
# HLA-B*57:01 [7] = test: as above
# HLA-B*51:01 [8] = test: as above
# HLA-B*46:01 [9] = test: as above
# HLA-B*39:01 [10] = test: IEDB peptide-MHC binding, purified MHC/direct/fluorescence; filed as Kd, often an IC50 or EC50 that approximates it; ≥ and ≤ were set here for values at or beyond the usual limits of such assays
# HLA-B*44:02 = test: as above
# HLA-B*58:01 = test: as above; details: source organism: Mammarenavirus juninense
# HLA-B*18:01 [11] = test: as above
# HLA-A*31:01 = test: as above; details: source organism: Mammarenavirus juninense
# HLA-A*02:01 [12] = test: as above
# HLA-B*15:01 [13] = test: as above
# HLA-A*69:01 [14] = test: as above
# HLA-B*57:01 [15] = test: as above; details: source organism: Mammarenavirus juninense
# HLA-A*03:01 [16] = test: as above
# HLA-A*29:02 = test: as above
# HLA-B*46:01 [17] = test: as above
# HLA-A*01:01 = test: as above
# HLA-B*40:01 = test: as above
# HLA-B*27:05 = test: as above
# HLA-A*02:16 = test: as above
# HLA-A*24:03 = test: as above
# HLA-B*15:17 = test: IEDB peptide-MHC binding, purified MHC/competitive/fluorescence; filed as Kd, often an IC50 or EC50 that approximates it; ≥ and ≤ were set here for values at or beyond the usual limits of such assays
# HLA-B*15:01 [18] = test: as above; details: source organism: Hantavirus HPR/02-73
# [19] = source organism: Mammarenavirus lassaense
# [20] = source organism: Salmonella enterica subsp. enterica serovar Typhi
# [21] = source organism: Cryptosporidium parvum Iowa II
# [22] = source organism: Mammarenavirus juninense
# [23] = source organism: Coxiella burnetii
# [24] = source organism: Listeria monocytogenes serotype 4b str. H7858
# [25] = source organism: Listeria monocytogenes
# [26] = source organism: Yaba-like disease virus
# [27] = source organism: Mycobacterium tuberculosis variant bovis BCG str. Pasteur 1173P2
# [28] = source organism: Human immunodeficiency virus 1
# [29] = source organism: Araucaria virus
# [30] = source organism: Hantavirus HPR/02-73
sequence,measurement,setting,value
CGRSCTSSL,Kd,HLA-B*51:01 [1]; [19],≥ 20 µM
same,Kd,HLA-B*07:02; [19],0.558 µM
FMLSVHYRK,Kd,HLA-A*03:01 [2]; source organism: Listeria monocytogenes HCC23,0.364 µM
FTFKVNSVK,Kd,HLA-B*15:42; [20],≥ 5 µM
same,Kd,HLA-A*03:01 [2]; [20],0.152 µM
same,Kd,HLA-B*83:01; [20],≥ 5 µM
same,Kd,HLA-B*45:06; [20],≥ 5 µM
GFPFFIMPK,Kd,HLA-A*02:03; [21],≥ 20 µM
same,Kd,HLA-A*11:01; [21],0.078 µM
same,Kd,HLA-A*02:12; [21],≥ 20 µM
same,Kd,HLA-A*02:19; [21],≥ 20 µM
same,Kd,HLA-A*68:02; [21],≥ 20 µM
same,Kd,HLA-B*39:01 [3]; [21],≥ 20 µM
same,Kd,HLA-B*18:01 [4]; [21],≥ 20 µM
same,Kd,HLA-A*26:01; [21],≥ 20 µM
same,Kd,HLA-A*02:01 [5]; [21],≥ 20 µM
same,Kd,HLA-B*27:03; [21],≥ 20 µM
same,Kd,HLA-A*69:01 [6]; [21],≥ 20 µM
same,Kd,HLA-B*57:01 [7]; [21],≥ 20 µM
same,Kd,HLA-B*51:01 [8]; [21],≥ 20 µM
same,Kd,HLA-B*46:01 [9]; [21],≥ 20 µM
GKLDPTNTL,Kd,HLA-B*39:01 [10]; [22],3 µM
same,Kd,HLA-B*44:02; [22],≥ 20 µM
same,Kd,HLA-B*58:01,≥ 20 µM
same,Kd,HLA-B*18:01 [11]; [22],≥ 20 µM
same,Kd,HLA-A*31:01,≥ 20 µM
same,Kd,HLA-A*02:01 [12]; [22],≥ 20 µM
same,Kd,HLA-B*15:01 [13]; [22],≥ 20 µM
same,Kd,HLA-A*69:01 [14]; [22],≥ 20 µM
same,Kd,HLA-B*57:01 [15],≥ 20 µM
same,Kd,HLA-A*03:01 [16]; [22],≥ 20 µM
same,Kd,HLA-A*29:02; [22],≥ 20 µM
same,Kd,HLA-B*46:01 [17]; [22],≥ 20 µM
same,Kd,HLA-A*01:01; [22],≥ 20 µM
same,Kd,HLA-B*40:01; [22],≥ 20 µM
same,Kd,HLA-B*07:02; [22],≥ 20 µM
same,Kd,HLA-B*27:05; [22],≥ 20 µM
HISWQGPGK,Kd,HLA-A*03:01 [2]; source organism: Vibrio atlanticus LGP32,0.218 µM
KFFMVHSLK,Kd,HLA-A*02:03; [23],≥ 20 µM
same,Kd,HLA-A*02:16; [23],≥ 20 µM
same,Kd,HLA-A*11:01; [23],0.603 µM
same,Kd,HLA-A*02:12; [23],≥ 20 µM
same,Kd,HLA-A*02:19; [23],≥ 20 µM
same,Kd,HLA-A*24:03; [23],≥ 20 µM
same,Kd,HLA-A*68:02; [23],≥ 20 µM
same,Kd,HLA-B*39:01 [3]; [23],≥ 20 µM
same,Kd,HLA-B*18:01 [4]; [23],≥ 20 µM
same,Kd,HLA-A*26:01; [23],≥ 20 µM
same,Kd,HLA-A*02:01 [5]; [23],≥ 20 µM
same,Kd,HLA-B*27:03; [23],≥ 20 µM
same,Kd,HLA-A*69:01 [6]; [23],≥ 20 µM
same,Kd,HLA-B*57:01 [7]; [23],≥ 20 µM
same,Kd,HLA-B*51:01 [8]; [23],≥ 20 µM
same,Kd,HLA-B*46:01 [9]; [23],≥ 20 µM
same,Kd,HLA-B*15:17; [23],≥ 20 µM
KREEHYIVL,Kd,HLA-B*39:01 [10]; [19],0.1 µM
same,Kd,HLA-B*44:02; [19],≥ 20 µM
same,Kd,HLA-A*03:01 [16]; [19],≥ 20 µM
same,Kd,HLA-B*46:01 [17]; [19],≥ 20 µM
same,Kd,HLA-B*07:02; [19],≥ 20 µM
same,Kd,HLA-B*27:05; [19],≥ 20 µM
MAMLADYFY,Kd,HLA-B*15:01 [13]; [24],0.012 µM
same,Kd,HLA-B*51:01 [1]; [25],≥ 20 µM
same,Kd,HLA-B*07:02; [25],≥ 20 µM
MTSGSSSGF,Kd,HLA-A*29:02; source organism: Mycobacterium tuberculosis H37Rv,0.051 µM
same,Kd,HLA-A*01:01; source organism: Mycobacterium tuberculosis,≥ 5 µM
NTDNKFISY,Kd,HLA-A*01:01; source organism: Camelpox virus M-96,≤ 0.001 µM
same,Kd,HLA-B*15:42; [26],≥ 5 µM
same,Kd,HLA-B*83:01; [26],≥ 5 µM
same,Kd,HLA-B*45:06; [26],≥ 5 µM
QETWTRLVL,Kd,HLA-B*39:01 [10]; [27],0.108 µM
same,Kd,HLA-B*40:01; [27],0.0389 µM
RLLHRTTRH,Kd,HLA-A*03:01 [2]; source organism: Burkholderia vietnamiensis G4,0.012 µM
RPMTYKAAL,Kd,HLA-A*69:01 [14]; [28],11 µM
same,Kd,HLA-A*11:01; [28],17.6 µM
same,Kd,HLA-B*07:02; [28],0.0396 µM
same,Kd,HLA-B*15:42; [28],≥ 5 µM
same,Kd,HLA-B*83:01; [28],0.0987 µM
same,Kd,HLA-B*45:06; [28],≥ 5 µM
SERFINYAI,Kd,HLA-B*18:01 [11]; [19],0.033 µM
same,Kd,HLA-B*40:01; [19],0.0525 µM
same,Kd,HLA-B*15:42; [19],≥ 5 µM
same,Kd,HLA-B*83:01; [19],≥ 5 µM
same,Kd,HLA-B*45:06; [19],≥ 5 µM
SQDEVLFLV,Kd,HLA-A*02:16; [24],≤ 0.001 µM
same,Kd,HLA-A*02:01 [12]; [25],0.0045 µM
same,Kd,HLA-A*69:01 [14]; [25],0.0353 µM
same,Kd,HLA-A*02:12; [24],0.004 µM
VIWAASGFY,Kd,HLA-A*03:01 [2]; source organism: Yersinia pestis Nepal516,0.0956 µM
WKAIGAYIL,Kd,HLA-A*02:03; [29],≥ 20 µM
same,Kd,HLA-B*39:01 [10]; source organism: Juquitiba virus,0.0269 µM
same,Kd,HLA-A*03:01 [16]; [29],≥ 20 µM
same,Kd,HLA-A*02:12; [29],≥ 20 µM
same,Kd,HLA-A*29:02; [29],≥ 20 µM
same,Kd,HLA-A*02:19; [29],≥ 20 µM
same,Kd,HLA-A*24:03; [29],≥ 20 µM
same,Kd,HLA-A*68:02; [29],≥ 20 µM
same,Kd,HLA-B*18:01 [4]; [30],≥ 20 µM
same,Kd,HLA-A*26:01; [30],≥ 20 µM
same,Kd,HLA-B*15:01 [18],≥ 20 µM
same,Kd,HLA-B*27:03; [30],≥ 20 µM
same,Kd,HLA-A*69:01 [6]; [30],≥ 20 µM
same,Kd,HLA-B*57:01 [7]; [30],≥ 20 µM
same,Kd,HLA-B*51:01 [8]; [30],≥ 20 µM
same,Kd,HLA-B*46:01 [9]; [30],≥ 20 µM
same,Kd,HLA-B*15:17; [30],≥ 20 µM
